Laboratory results: article PMC9788759

Biological target: reconstituted 26S proteasome with LD555 donor dye on Rpn9 (F2AzF) and LD655 acceptor dye on Rpt5 (Q49AzF), wild type (yeast | not stated | yeast (endogenous gene tagged in strain W303) | yeast (endogenous in W303)) (UniProt P33299)
Chain of UniProt P33299 (P33299 whole entry, looked up): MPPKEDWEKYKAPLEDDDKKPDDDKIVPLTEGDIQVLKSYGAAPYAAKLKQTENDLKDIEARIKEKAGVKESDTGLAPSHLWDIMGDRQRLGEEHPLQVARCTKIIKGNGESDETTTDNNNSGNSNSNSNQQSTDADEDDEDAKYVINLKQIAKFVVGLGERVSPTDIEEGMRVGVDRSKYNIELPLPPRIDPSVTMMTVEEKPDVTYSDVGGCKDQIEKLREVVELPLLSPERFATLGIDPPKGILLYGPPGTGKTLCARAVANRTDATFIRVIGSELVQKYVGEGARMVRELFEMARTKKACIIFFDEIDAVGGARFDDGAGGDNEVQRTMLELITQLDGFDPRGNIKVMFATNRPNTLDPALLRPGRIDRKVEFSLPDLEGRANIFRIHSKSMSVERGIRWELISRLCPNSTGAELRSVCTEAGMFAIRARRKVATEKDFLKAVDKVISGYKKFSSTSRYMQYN

Substance: unanchored K48-linked ubiquitin tetramer (from UniProt P0CG63 1-76)
- rate of the s1-to-non-s1 transition (ks1) of the substrate-free proteasome in the single-molecule FRET conformational dynamics assay; 1.2 s^-1 without chains: 0.4 s⁻¹
